Source: article doi:10.1101/2023.04.08.536109

Biological target: Sulfolobus acidocaldarius GPN-loop GTPase Saci1281 (SaGPN) (Sulfolobus acidocaldarius)
Experiment: SEC

stoichiometry N: 2
Substance: Sulfolobus acidocaldarius GPN-loop GTPase Saci1281 (SaGPN) (enzyme)
